{"source": "paper PMC7337897", "biological_target": "E2F1 (UniProt Q01094)", "sequence (Q01094 whole entry)": "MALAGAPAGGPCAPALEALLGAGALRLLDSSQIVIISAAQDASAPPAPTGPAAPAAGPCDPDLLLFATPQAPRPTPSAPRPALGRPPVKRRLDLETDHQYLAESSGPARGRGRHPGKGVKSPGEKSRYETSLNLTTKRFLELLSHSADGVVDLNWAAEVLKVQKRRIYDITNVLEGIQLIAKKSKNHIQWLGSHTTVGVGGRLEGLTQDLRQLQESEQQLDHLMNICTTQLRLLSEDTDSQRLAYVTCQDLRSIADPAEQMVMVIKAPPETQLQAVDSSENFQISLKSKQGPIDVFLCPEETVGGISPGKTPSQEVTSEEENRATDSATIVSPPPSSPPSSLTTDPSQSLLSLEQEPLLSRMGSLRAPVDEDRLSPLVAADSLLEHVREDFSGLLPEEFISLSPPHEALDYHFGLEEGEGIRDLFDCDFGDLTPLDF", "assay": "proximity ligation; in situ PLA in fixed, permeabilised H1299 cells, under normal (EV) and GAr-induced mRNA translation stress conditions; Duolink PLA kit; the antibodies of the protein-protein PLA are not told"}
{"substance": "MDM2 (from UniProt Q00987 1-491) (natural protein)", "values": [{"measurement": "PLA interactions per cell (interactions per cell)", "value": 20}]}
